Test results taken from patent US20240116985A1 (published 2024).
Starred links: 1 amine or outer side, 2 acyl side, 3 side chain; linkers in the order of their positions; H or OH if unused. Positions of bridges follow the written chain, without caps; N, C: chain ends. Non-standard residues stand in square brackets, D forms with d. Primed or numbered codes have the meaning given here. *: point of attachment. (Pfbn)GAbu = (S)-2-amino-4-((carboxymethyl)((perfluorophenyl)methyl)amino)butanoic acid, O=C([C@H](CCN(CC(=O)[*:3])Cc1c(F)c(F)c(F)c(F)c1F)N[*:1])[*:2]; PyrS2″ = (S)-3-amino-1-((pent-4-en-1-yloxy)carbonyl)pyrrolidine-3-carboxylic acid (stapling residue), C=CCCCOC(=O)N1CC[C@@](N[*:1])(C(=O)[*:2])C1; B5(4) = 2,2-bis(4-pentenyl)glycine = 2-amino-2-(pent-4-en-1-yl)hept-6-enoic acid (stitching residue), C=CCCCC(CCCC=C)(N[*:1])C(=O)[*:2]; B5(33) = 2-amino-2-(pent-4-en-1-yl)hept-6-enoic acid (bis-pentenylglycine, two olefin side chains), C=CCCCC(CCCC=C)(N[*:1])C(=O)[*:2]; B5(21) = 2-amino-2-(pent-4-en-1-yl)hept-6-enoic acid, bis(4-pentenyl)glycine (stitching residue), C=CCCCC(CCCC=C)(N[*:1])C(=O)[*:2]; PyrS2 = (S)-3-amino-1-((pent-4-en-1-yloxy)carbonyl)pyrrolidine-3-carboxylic acid, C=CCCCOC(=O)N1CC[C@@](N[*:1])(C(=O)[*:2])C1; Phe(3-COOH) = N[C@@H](Cc1cccc(C(=O)O)c1)C(=O)O; Phe(2-CF3) = N[C@@H](Cc1ccccc1C(F)(F)F)C(=O)O; 2Nal = N[C@@H](Cc1ccc2ccccc2c1)C(=O)O; Bta = N[C@@H](Cc1csc2ccccc12)C(=O)O; Lys(iPr) = CC(C)NCCCC[C@H](N)C(=O)O; αAllylPro = C=CC[C@@]1(C(=O)O)CCCN1; tBuAla = CC(C)(C)C[C@H](N)C(=O)O; 3Thi = N[C@@H](Cc1ccsc1)C(=O)O; Cha = N[C@@H](CC1CCCCC1)C(=O)O; iPr = CC(C)*

T1: B-cat-Halo (beta-catenin HaloTag fusion expressed in HEK293 cells) (Homo sapiens (Human), UniProt P35222 1-781)
T1 sequence: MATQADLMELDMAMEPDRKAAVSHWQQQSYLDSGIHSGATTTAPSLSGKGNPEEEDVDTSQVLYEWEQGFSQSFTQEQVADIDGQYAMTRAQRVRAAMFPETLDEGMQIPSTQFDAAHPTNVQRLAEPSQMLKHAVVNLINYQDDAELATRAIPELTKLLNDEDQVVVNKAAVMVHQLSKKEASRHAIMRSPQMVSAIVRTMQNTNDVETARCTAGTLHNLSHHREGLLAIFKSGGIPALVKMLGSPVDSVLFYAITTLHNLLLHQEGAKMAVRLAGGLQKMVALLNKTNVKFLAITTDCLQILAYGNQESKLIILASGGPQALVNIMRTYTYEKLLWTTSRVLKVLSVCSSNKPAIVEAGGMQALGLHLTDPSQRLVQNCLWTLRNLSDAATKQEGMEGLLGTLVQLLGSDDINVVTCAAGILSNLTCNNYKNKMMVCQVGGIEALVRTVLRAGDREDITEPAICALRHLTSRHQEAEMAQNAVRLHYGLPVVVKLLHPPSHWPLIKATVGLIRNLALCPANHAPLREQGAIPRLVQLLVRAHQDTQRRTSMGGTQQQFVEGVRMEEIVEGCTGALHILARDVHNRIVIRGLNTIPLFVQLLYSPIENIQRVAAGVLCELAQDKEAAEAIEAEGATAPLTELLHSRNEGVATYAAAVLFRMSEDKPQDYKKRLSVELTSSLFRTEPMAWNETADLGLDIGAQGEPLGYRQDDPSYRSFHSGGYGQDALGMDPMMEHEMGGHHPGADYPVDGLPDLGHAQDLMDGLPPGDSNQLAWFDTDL

T2: full-length beta-Catenin (Uniprot ID P35222) (Homo sapiens (Human), UniProt P35222 2-781)
T2 construct: full-length beta-Catenin (Uniprot ID P35222); also called bCat; B-Catenin
T2 sequence: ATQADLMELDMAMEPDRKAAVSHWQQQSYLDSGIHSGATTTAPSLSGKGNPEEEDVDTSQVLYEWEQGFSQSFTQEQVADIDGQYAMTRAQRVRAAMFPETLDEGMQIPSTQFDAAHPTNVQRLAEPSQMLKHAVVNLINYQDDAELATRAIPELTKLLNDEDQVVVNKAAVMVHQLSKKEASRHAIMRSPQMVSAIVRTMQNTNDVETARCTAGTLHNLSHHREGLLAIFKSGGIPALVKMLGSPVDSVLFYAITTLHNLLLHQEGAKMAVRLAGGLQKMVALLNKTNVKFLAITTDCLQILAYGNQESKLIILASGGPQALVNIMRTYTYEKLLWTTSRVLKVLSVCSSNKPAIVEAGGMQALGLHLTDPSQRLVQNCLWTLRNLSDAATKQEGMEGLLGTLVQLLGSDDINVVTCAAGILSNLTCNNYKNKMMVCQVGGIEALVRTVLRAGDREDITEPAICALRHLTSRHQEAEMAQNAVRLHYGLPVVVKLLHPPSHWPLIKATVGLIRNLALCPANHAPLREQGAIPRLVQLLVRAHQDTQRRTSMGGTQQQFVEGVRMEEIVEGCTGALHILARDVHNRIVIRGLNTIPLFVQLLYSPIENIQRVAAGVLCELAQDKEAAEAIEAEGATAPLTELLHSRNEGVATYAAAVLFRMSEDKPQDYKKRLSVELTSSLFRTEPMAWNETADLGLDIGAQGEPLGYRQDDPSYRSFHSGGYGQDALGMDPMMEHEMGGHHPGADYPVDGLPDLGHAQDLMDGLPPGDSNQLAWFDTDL

T3: B-cat-Halo (UniProt P35222 1-781)
T3 sequence (looked up): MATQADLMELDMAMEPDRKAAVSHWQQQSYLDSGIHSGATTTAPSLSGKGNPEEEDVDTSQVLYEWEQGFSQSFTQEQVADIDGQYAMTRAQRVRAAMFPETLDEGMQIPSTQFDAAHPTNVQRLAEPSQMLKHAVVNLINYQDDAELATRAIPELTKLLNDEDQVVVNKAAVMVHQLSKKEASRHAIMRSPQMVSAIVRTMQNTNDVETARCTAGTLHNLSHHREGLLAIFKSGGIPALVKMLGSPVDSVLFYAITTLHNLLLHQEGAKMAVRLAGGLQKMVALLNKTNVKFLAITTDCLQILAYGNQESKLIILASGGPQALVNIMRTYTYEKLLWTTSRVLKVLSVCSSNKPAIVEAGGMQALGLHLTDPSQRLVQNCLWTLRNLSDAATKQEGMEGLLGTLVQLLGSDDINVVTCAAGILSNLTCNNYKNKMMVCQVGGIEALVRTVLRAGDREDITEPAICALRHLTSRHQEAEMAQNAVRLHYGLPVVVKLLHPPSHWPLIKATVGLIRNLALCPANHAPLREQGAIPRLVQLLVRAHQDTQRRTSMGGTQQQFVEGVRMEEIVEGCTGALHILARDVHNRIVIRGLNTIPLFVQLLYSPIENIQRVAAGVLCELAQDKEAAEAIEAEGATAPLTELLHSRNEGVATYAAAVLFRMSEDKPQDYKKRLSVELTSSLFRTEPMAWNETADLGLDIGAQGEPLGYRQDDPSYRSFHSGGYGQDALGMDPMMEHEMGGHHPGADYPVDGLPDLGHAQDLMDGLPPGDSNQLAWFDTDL

T4: B-cat-Halo (beta-catenin HaloTag construct expressed in HEK293 cells) (UniProt P35222 1-781)
T4 sequence (looked up): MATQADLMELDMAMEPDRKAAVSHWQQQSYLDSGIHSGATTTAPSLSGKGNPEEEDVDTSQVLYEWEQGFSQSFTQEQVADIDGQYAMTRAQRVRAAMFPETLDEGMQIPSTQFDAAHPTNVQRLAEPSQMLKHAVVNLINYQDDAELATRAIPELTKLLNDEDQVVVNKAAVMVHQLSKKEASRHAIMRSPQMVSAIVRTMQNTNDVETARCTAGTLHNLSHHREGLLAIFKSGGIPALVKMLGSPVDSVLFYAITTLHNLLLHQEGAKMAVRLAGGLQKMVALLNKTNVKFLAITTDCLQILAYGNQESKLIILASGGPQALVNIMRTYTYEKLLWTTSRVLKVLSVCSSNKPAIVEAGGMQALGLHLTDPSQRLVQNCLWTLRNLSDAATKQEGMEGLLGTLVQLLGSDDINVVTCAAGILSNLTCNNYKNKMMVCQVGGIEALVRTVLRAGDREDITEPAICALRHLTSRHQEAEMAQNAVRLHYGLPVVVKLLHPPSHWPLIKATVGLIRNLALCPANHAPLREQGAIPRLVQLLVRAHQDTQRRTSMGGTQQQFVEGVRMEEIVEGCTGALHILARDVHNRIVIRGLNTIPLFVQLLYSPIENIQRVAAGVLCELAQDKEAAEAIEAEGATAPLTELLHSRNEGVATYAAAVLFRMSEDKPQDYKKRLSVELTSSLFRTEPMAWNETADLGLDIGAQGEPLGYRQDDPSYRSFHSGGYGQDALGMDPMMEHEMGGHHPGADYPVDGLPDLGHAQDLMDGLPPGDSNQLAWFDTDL


Key:
[1] = molecular target: T1, B-cat-Halo (beta-catenin HaloTag fusion …); assay: cell-based or functional assay
[2] = molecular target: T2, full-length beta-Catenin (Uniprot ID …); assay: fluorescence polarization competition; full-length beta-catenin + 5FAM-TCF4 10-53 probe, peptide titrated
Procedure: The plate was incubated protected from light for 60 minutes at 20° C. prior to read. Reads were performed on a CLARIOstar plate reader (BMG Labtech) in duplicate, and data were fitted to a 1:1 binding model with hill slope using an in-house script. All provided concentrations are final concentrations.

[3] = molecular target: T3, B-cat-Halo; assay: cell-based or functional assay
[4] = molecular target: T4, B-cat-Halo (beta-catenin HaloTag …); assay: cell-based or functional assay

| Binder | NanoBRET Abs IC50 [1] | IC50 [2] | other results |
| --- | --- | --- | --- |
| Ac-[αAllylPro]D[tBuAla][B5(4)]D[Phe(3-COOH)]QAFL[PyrS2″][Phe(2-CF3)][SbMeBztA]A-NH2 (staple 1-4, 4-11) [I-2457] | 20.8 µM | – | – |
| Ac-[αAllylPro]DA[B5(4)]NT[Lys(iPr)]AFL[PyrS2″]F[2Nal]Q-NH2 (staple 1-4, 4-11, also called Ac-PL3-Asp-Ala-B5-Asn-Thr-iPrLys-Ala-Phe-Leu-PyrS2-Phe-2NapA-Gln-NH2) [I-1381] | – | 10 µM | – |
| Ac-[αAllylPro]D[tBuAla][B5(4)]D[Phe(3-COOH)]AAFL[PyrS2″][Phe(2-CF3)][RbMe2NapA]Q-NH2 (staple 1-4, 4-11) [I-2462] | 4.7 µM | – | – |
| Ac-[αAllylPro]D[tBuAla][B5(33)]DTAAFT[PyrS2]F[Bta]S-NH2 (staple 1-4, 4-11 (inferred); not fully specified; printed as Ac-PL3-Asp-Npg-B5-Asp-Thr-Ala-Ala-Phe-Thr-PyrS2-Phe-BztA-Ser-NH2) [I-1263] | – | – | NanoBRET Abs IC50 [3]: 20 µM |
| Ac-[αAllylPro]D[tBuAla][B5(4)]D[(Pfbn)GAbu]AAFL[PyrS2″][3Thi][Bta]Q-NH2 (staple 1-4, 4-11) [I-1838] | – | – | NanoBRET Abs IC50 [4]: 7.9 µM |
| Ac-[αAllylPro]NA[B5(4)]DT[Lys(iPr)]AFL[PyrS2″]F[Bta]Q-NH2 (staple 1-4, 4-11, also called Ac-PL3-Asn-Ala-B5-Asp-Thr-iPrLys-Ala-Phe-Leu-PyrS2-Phe-BztA-Gln-NH2) [I-1382] | – | 2.85 µM | – |
| Ac-[αAllylPro]NA[B5(21)]DKK(iPr)AFL[PyrS2″]F[Bta]Q-NH2 (staple 1-4, 4-11, also called Ac-PL3-Asn-Ala-B5-Asp-Lys-iPrLys-Ala-Phe-Leu-PyrS2-Phe-BztA-Gln-NH2) [I-1386] | – | 2.25 µM | – |
| Ac-[αAllylPro]NA[B5(21)]DQK(iPr)AFL[PyrS2″]F[Bta]Q-NH2 (staple 1-4, 4-11, also called Ac-PL3-Asn-Ala-B5-Asp-Gln-iPrLys-Ala-Phe-Leu-PyrS2-Phe-BztA-Gln-NH2) [I-1385] | – | 1.08 µM | – |

The next lines start with results.

| NanoBRET Abs IC50 [1] | IC50 [2] | Binder | other results |
| --- | --- | --- | --- |
| 12.8 µM | – | Ac-[αAllylPro]D[tBuAla][B5(4)]D[Phe(3-COOH)]AAFL[PyrS2″][Phe(2-CF3)][2Nal]Q-NH2 (staple 1-4, 4-11) [I-2460] | – |
| – | 1.66 µM | Ac-[αAllylPro]NA[B5(4)]DT[Lys(iPr)]AFL[PyrS2″]F[Bta]K-NH2 (staple 1-4, 4-11, also called Ac-PL3-Asn-Ala-B5-Asp-Thr-iPrLys-Ala-Phe-Leu-PyrS2-Phe-BztA-Lys-NH2) [I-1383] | – |
| – | 10 µM | Ac-[αAllylPro]NA[B5(4)]DT[Lys(iPr)]AFL[PyrS2″]F[Bta]T-NH2 (staple 1-4, 4-11, also called Ac-PL3-Asn-Ala-B5-Asp-Thr-iPrLys-Ala-Phe-Leu-PyrS2-Phe-BztA-Thr-NH2) [I-1384] | – |
| > 20 µM | – | Ac-[αAllylPro]N[Cha][B5(4)]DT[Lys(iPr)]AFL[PyrS2″]F[Bta]K-NH2 (staple 1-4, 4-11) [I-2450] | – |
| – | 6.94 µM | Ac-[αAllylPro]NA[B5(21)]DTK(iPr)AFL[PyrS2″]F[2Nal]Q-NH2 (staple 1-4, 4-11, also called Ac-PL3-Asn-Ala-B5-Asp-Thr-iPrLys-Ala-Phe-Leu-PyrS2-Phe-2NapA-Gln-NH2) [I-1387] | – |
